Reference: patent US20120251547A1 (Amgen, published 2012)
Substitutions are numbered along the chain they refer to. Each block holds one binder with its values, some of them ahead of it.

How the values were obtained:
huIL-17RA-FLAG-polyHis [1] = molecular target: T1, huIL-17RA-FLAG-polyHis (human, UniProt Q96F46 33-320); test: binning; IL-17RA held by bead mAb Q
T1 construct: also called IL-17RA-FLAG-pHis; wild-type IL-17RA

chimera B = molecular target: T2, chimera B; test: Bio-Plex titration on His-captured chimera;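 further: binding of anti-IL-17RA antibodies (4-fold titration across about 5 logs, 1 h) to His-captured IL-17RA chimeras on multiplexed beads, MFI read as percent of maximal wild-type human IL-17RA signal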
T2 construct: human IL-17RA extracellular domain with mouse Domain B; column head 75-96; also called Construct B
T2 IL-17RA extracellular domain with FLAG-polyHis tag: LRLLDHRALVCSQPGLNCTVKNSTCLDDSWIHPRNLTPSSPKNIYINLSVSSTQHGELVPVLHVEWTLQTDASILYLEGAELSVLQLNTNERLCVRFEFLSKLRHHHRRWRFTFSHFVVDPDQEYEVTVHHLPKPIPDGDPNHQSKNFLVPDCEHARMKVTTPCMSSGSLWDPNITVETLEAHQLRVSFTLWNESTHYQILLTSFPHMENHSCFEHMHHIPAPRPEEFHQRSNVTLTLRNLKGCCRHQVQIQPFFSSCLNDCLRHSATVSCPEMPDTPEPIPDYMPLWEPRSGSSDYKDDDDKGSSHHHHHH

chimera A = molecular target: T3, chimera A; test: Bio-Plex titration on His-captured chimera;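 further: binding of anti-IL-17RA antibodies (4-fold titration across about 5 logs, 1 h) to His-captured IL-17RA chimeras on multiplexed beads, MFI read as percent of maximal wild-type human IL-17RA signal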
T3 construct: human IL-17RA extracellular domain with mouse Domain A; column head aa 38-51; also called Construct A

chimera E = molecular target: T4, chimera E; test: Bio-Plex titration on His-captured chimera;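 further: binding of anti-IL-17RA antibodies (4-fold titration across about 5 logs, 1 h) to His-captured IL-17RA chimeras on multiplexed beads, MFI read as percent of maximal wild-type human IL-17RA signal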
T4 construct: human IL-17RA extracellular domain with mouse Domain E; also called Construct E

chimera L = molecular target: T5, chimera L; test: Bio-Plex titration on His-captured chimera;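 further: binding of anti-IL-17RA antibodies (4-fold titration across about 5 logs, 1 h) to His-captured IL-17RA chimeras on multiplexed beads, MFI read as percent of maximal wild-type human IL-17RA signal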
T5 construct: human IL-17RA extracellular domain with mouse Domains B and F; B+F; also called Construct L

chimera G = molecular target: T6, chimera G; test: Bio-Plex titration on His-captured chimera
T6 construct: human IL-17RA extracellular domain with mouse Domains A and E; also called Construct G

chimera H = molecular target: T7, chimera H; test: Bio-Plex titration on His-captured chimera
T7 construct: human IL-17RA extracellular domain with mouse Domains B and E; also called Construct H
T7 IL-17RA extracellular domain with FLAG-polyHis tag: T2 IL-17RA extracellular domain with FLAG-polyHis tag with E181D, A182T, H183Q, Q184H, S188D

chimera I = molecular target: T8, chimera I; test: Bio-Plex titration on His-captured chimera
T8 construct: human IL-17RA extracellular domain with mouse Domains C and E; also called Construct I

chimera C = molecular target: T9, chimera C; test: Bio-Plex titration on His-captured chimera
T9 construct: human IL-17RA extracellular domain with mouse Domain C; also called Construct C

huIL-17RA-FLAG-polyHis [2] = molecular target: T1, huIL-17RA-FLAG-polyHis; test: Bio-Plex, His-tagged wild-type huIL-17RA on pentaHis beads, antibody titration, PE anti-human IgG Fc
huIL-17RA-FLAG-polyHis [3] = molecular target: T1, huIL-17RA-FLAG-polyHis; test: binning; IL-17RA held by bead mAb N
huIL-17RA-FLAG-polyHis [4] = molecular target: T1, huIL-17RA-FLAG-polyHis; test: binning; IL-17RA held by bead mAb R
[5] = molecular target: human IL-17RA (form used in the low resolution BIAcore not stated) (human, UniProt Q96F46 33-320, limits assumed); test: low resolution BIAcore, subcloned hybridoma
huIL-17RA-FLAG-polyHis [6] = molecular target: T1, huIL-17RA-FLAG-polyHis; test: binning; IL-17RA held by bead mAb K
huIL-17RA-FLAG-polyHis [7] = molecular target: T1, huIL-17RA-FLAG-polyHis; test: binning; IL-17RA held by bead mAb E
huIL-17RA-FLAG-polyHis [8] = molecular target: T1, huIL-17RA-FLAG-polyHis; test: binning; IL-17RA held by bead mAb F
[9] = molecular target: human IL-17RA, full-length, on cells (human, UniProt Q96F46 33-866); test: cell-based or functional assay
huIL-17RA-FLAG-polyHis [10] = molecular target: T1, huIL-17RA-FLAG-polyHis; test: binning; IL-17RA held by bead mAb M
huIL-17RA-FLAG-polyHis [11] = molecular target: T1, huIL-17RA-FLAG-polyHis; test: binning; IL-17RA held by bead mAb C
huIL-17RA-FLAG-polyHis [12] = molecular target: T1, huIL-17RA-FLAG-polyHis; test: binning; IL-17RA held by bead mAb D
huIL-17RA-FLAG-polyHis [13] = molecular target: T1, huIL-17RA-FLAG-polyHis; test: binning; IL-17RA held by bead mAb O
huIL-17RA-FLAG-polyHis [14] = molecular target: T1, huIL-17RA-FLAG-polyHis; test: binning; IL-17RA held by bead mAb P
D152R IL-17RA mutant = D152R IL-17RA mutant (human, UniProt Q96F46 33-320); test: Bio-Plex titration on His-captured D152R mutant
huIL-17RA-FLAG-polyHis [15] = molecular target: T1, huIL-17RA-FLAG-polyHis; test: binning; IL-17RA held by bead mAb A

normalized MFI (huIL-17RA-FLAG-polyHis [1]): 100
EC50 (chimera B): 0.017 nM
EC50 (chimera A): 0.018 nM
EC50 (chimera E): 0.026 nM
EC50 (chimera L): 0.025 nM
EC50 (chimera G): 0.025 nM
EC50 (chimera H): 0.025 nM
EC50 (chimera I): 0.032 nM
EC50 (chimera C): 0.03 nM
EC50 (huIL-17RA-FLAG-polyHis [2]): 0.018 nM
normalized MFI (huIL-17RA-FLAG-polyHis [3]): 39
normalized MFI (huIL-17RA-FLAG-polyHis [4]): 34
Kd [5]: 16.7 nM
normalized MFI (huIL-17RA-FLAG-polyHis [6]): -181
normalized MFI (huIL-17RA-FLAG-polyHis [7]): 1170
normalized MFI (huIL-17RA-FLAG-polyHis [8]): 2200
IL-17A/HFF bioassay IC50, subclone 4 [9]: 2.3 nM
IL-17A/HFF bioassay IC50, subclone 5 [9]: 3.1 nM
IL-17A/HFF bioassay IC50, subclone 6 [9]: 3.3 nM
normalized MFI (huIL-17RA-FLAG-polyHis [10]): 44.5
normalized MFI (huIL-17RA-FLAG-polyHis [11]): 4770
normalized MFI (huIL-17RA-FLAG-polyHis [12]): 1380
normalized MFI (huIL-17RA-FLAG-polyHis [13]): 175
normalized MFI (huIL-17RA-FLAG-polyHis [14]): 2160
normalized MFI (huIL-17RA-FLAG-polyHis [15]): 9530
B1: AMH21/AML21 (antibody, IgG2, V domains shown)
VH: EVQLVESGGGSVQPGGSLRLSCAASGFTFSSYSMNWVRQAPGKGLEWVSIISSRSSIIHYADSVKGRFTISRDNAKNSLYLQMNSLRDEDTAVYYCARPKVGGGMDVWGQGTTVTVSS
VL: DIQMTQSPSSLSASVGDRVTITCRASQGISNYLAWYQQKPGKFPELLIYAASTLQSGVPSRFSGSGSGTDFTLTISSLQPEDVATYYCQKYNRAPFTFGPGTKVDIK
notes: human mAb from IgG2 XenoMouse mice; also called AM-21; antibody Q
binding result (D152R IL-17RA mutant): no binding (tested: log [Ab] about 0.5 (about 3 nM))

normalized MFI (huIL-17RA-FLAG-polyHis [1]): 60
EC50 (chimera B): 0.02 nM
EC50 (chimera A): 0.023 nM
EC50 (chimera E): 0.027 nM
EC50 (chimera L): 0.027 nM
EC50 (chimera G): 0.027 nM
EC50 (chimera H): 0.033 nM
EC50 (chimera I): 0.042 nM
EC50 (chimera C): 0.04 nM
EC50 (huIL-17RA-FLAG-polyHis [2]): 0.022 nM
normalized MFI (huIL-17RA-FLAG-polyHis [3]): 24
normalized MFI (huIL-17RA-FLAG-polyHis [4]): 25
Kd [5]: 11.6 nM
normalized MFI (huIL-17RA-FLAG-polyHis [6]): -29
normalized MFI (huIL-17RA-FLAG-polyHis [7]): 666
normalized MFI (huIL-17RA-FLAG-polyHis [8]): 1240
IL-17A/HFF bioassay IC50, subclone 7 [9]: 8.1 nM
IL-17A/HFF bioassay IC50, subclone 8 [9]: 6.6 nM
IL-17A/HFF bioassay IC50, subclone 9 [9]: 6.7 nM
normalized MFI (huIL-17RA-FLAG-polyHis [10]): 24
normalized MFI (huIL-17RA-FLAG-polyHis [11]): 2990
normalized MFI (huIL-17RA-FLAG-polyHis [12]): 783
normalized MFI (huIL-17RA-FLAG-polyHis [13]): 140
normalized MFI (huIL-17RA-FLAG-polyHis [14]): 1410
normalized MFI (huIL-17RA-FLAG-polyHis [15]): 6800
B2: AMH20/AML20 (antibody, IgG2, V domains shown)
VH: B1 VH with S11L, I50F, S53A, I57T, H59Y
VL: B1 VL
notes: human mAb from IgG2 XenoMouse mice; also called AM-20; antibody R
binding result (D152R IL-17RA mutant): no binding (tested: log [Ab] about 0.5 (about 3 nM))

normalized MFI (huIL-17RA-FLAG-polyHis [1]): 7850
EC50 (chimera B): 0.063 nM
EC50 (chimera A): 0.052 nM
EC50 (chimera E): 0.067 nM
binding result (chimera L): no binding
EC50 (chimera G): 0.052 nM
EC50 (chimera H): 0.088 nM
EC50 (chimera I): 0.059 nM
EC50 (chimera C): 0.052 nM
EC50 (huIL-17RA-FLAG-polyHis [2]): 0.061 nM
normalized MFI (huIL-17RA-FLAG-polyHis [3]): 3230
normalized MFI (huIL-17RA-FLAG-polyHis [4]): 5110
Kd [5]: 14.9 nM
normalized MFI (huIL-17RA-FLAG-polyHis [6]): 8970
normalized MFI (huIL-17RA-FLAG-polyHis [7]): 260
normalized MFI (huIL-17RA-FLAG-polyHis [8]): 304
IL-17A/HFF bioassay IC50, subclone 14 [9]: 0.44 nM
IL-17A/HFF bioassay IC50, subclone 15 [9]: 0.4 nM
IL-17A/HFF bioassay IC50, subclone 16 [9]: 0.17 nM
normalized MFI (huIL-17RA-FLAG-polyHis [10]): 2380
normalized MFI (huIL-17RA-FLAG-polyHis [11]): 354
normalized MFI (huIL-17RA-FLAG-polyHis [12]): 344
normalized MFI (huIL-17RA-FLAG-polyHis [13]): 5380
normalized MFI (huIL-17RA-FLAG-polyHis [14]): 4490
EC50 (read off the curve) (D152R IL-17RA mutant): ~0.07 nM
normalized MFI (huIL-17RA-FLAG-polyHis [15]): -162
B3: AMH18/AML18 (antibody, IgG2, V domains shown)
VH: QVQLVQSGAEVKKPGASVKVSCKASGYSFTDYYMHWVRQAPGQGLEWMGWMHPNSGGTDLAQRFQGRVTMTRDTSISTAYMELSRLRSDDTAVYYCARGGYCSTLSCSFYWYFDLWGRGTLVTVSS
VL: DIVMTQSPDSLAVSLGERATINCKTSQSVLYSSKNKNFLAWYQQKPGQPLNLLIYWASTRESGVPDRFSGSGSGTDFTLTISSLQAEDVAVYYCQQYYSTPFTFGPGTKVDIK
notes: human mAb from IgG2 XenoMouse mice; also called AM-18; antibody G
